{"source": "paper PMC4969574", "about": "(The EMBO Journal, 2016)", "binders": {"B1": {"name": "TssK1 fused to the adenylate cyclase T25 or T18 subunit (natural protein)", "chain": "MSWNNRVVWSEGMFLRPQHFQQHDRYLETLVDGRCRSLLAGGWGFSELKLDDALLTQGKLAIVSARGVLPDGTPFNIPADDPAPAPLNVEESLRDGIVYLGLPLKRVGTRDTVEEGEALGGARYVSQVQEVRDDNAAFESRAPVALGSQAFRLLTERDGLGEYAAVGVARVREKRADQALSLDEDYLPPVLDIAAAPPLASFAKELLGLLHQRGEALAGRVVASSAGGASEIADFLLLQLVNRAEALTGHLSRVRPLHPQELYRELVALAGEFCTFTASQRRPEEYPVYNHDDLAASFAPVMLALRQALATVIDAKAIAIPIVEKAYGVHVAMLSDRSLIDNASFVLVVRADVPGESLRGHFPQQAKVGSVEHIRDLVNLQLPGIGLLPMPVAPRQIPYHAGSTYFELDRGSAHWKQLTHSGGFAFHIAGQFPGLNLAFWAIRG"}, "B2": {"name": "His6-TssA1 (natural protein)", "chain": "MLDVPVLLAAVSPDSPCGDDLEYDAAFLELERIAQGQPERQMGDAVLPAEPPEWPRVRALASELFGRSKDLRVANLLLQSNVALDGLDGLADGLLLVRELLGQYWDGVYPLLDADDDNDPTFRINALTGLVAEPLLQLVWAIPLVRSRAFGPVNLRAALNAAGLQRFASETLSPEQIAGAFADADADALAATRRALDGAQEHALAIESGVAERVGSAQGLDLGPLRQLLRQALQVFDLYGPQGAGESLAPGAEAVADEQVGAAPVAAVAAPAPRASGEIANREDVLRQLDRLLEYYVRHEPSSPVPVLLKRAKTLVTADFAEIVRNLIPDGISQFETLRGPESE"}}, "key": {"[1]": {"molecular_target": "T1, TssA1 fused to the adenylate cyclase T25 or T18 subunit (P. aeruginosa, UniProt Q9I750 1-344)", "T1 sequence": "B2 chain", "test": "two-hybrid; bacterial two-hybrid (BTH), T25 and T18 adenylate cyclase fusions in E. coli DHM1; β-galactosidase activity in Miller units and X-gal LB agar plates", "settings": "partners not purified"}, "[2]": {"molecular_target": "the molecule itself", "test": "AUC; sedimentation velocity of His6-TssA1 at 0.8, 0.56 and 0.32 mg/ml, 20,000 and 30,000 rpm, 20 °C, 25 mM Tris-HCl pH 7.5, 200 mM NaCl; c(s) by SEDFIT"}}, "note": "Where “and” joins values, the source holds several entries; their conditions need not be identical. Equal values may be shown once."}
{"binder": "B1", "values": [{"measurement": "fold above control (β‐galactosidase activity)", "setting": "[1]", "value": "~20", "unit": "fold"}]}
{"binder": "B2", "values": [{"measurement": "stoichiometry N", "setting": "[2]", "value": "12 and 24"}]}
